Assay results published in the supplement of paper PMC10724198.
± gives the standard deviation of the averaged measurements.

Assays:
[1] = tested on: Saccharomyces cerevisiae; assay: protein stability index of tFT-peptide fusion (C-terminal peptide) (PSI (0-1 scale)); higher = more stable (slower turnover); conditions: genetic background: wild type; temperature: 30 C
[2] = tested on: Saccharomyces cerevisiae; assay: as above
Description: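 MPS profiling in S. cerevisiae of the tFT-X12 degron library: putative degron peptides plus stable controls, 12 aa, fused to the C-terminus of a sfGFP-mCherry timer. Cells are FACS-sorted into 8 mCherry/sfGFP bins and deep-sequenced. PSI runs from 0 (unstable) to 1 (stable). Backgrounds are wild type, das1Δ and doa10Δ at 30 °C, and wild type, das1Δ, cdc34-1 and cdc53-1 at 37 °C; 2-3 technical replicates each.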

[3] = genetic background: cdc34-1, temperature: 37 C
[4] = genetic background: cdc53-1, temperature: 37 C
[5] = genetic background: das1 deletion, temperature: 30 C
[6] = genetic background: das1 deletion, temperature: 37 C
[7] = genetic background: doa10 deletion, temperature: 30 C
[8] = genetic background: wild type, temperature: 30 C
[9] = genetic background: wild type, temperature: 37 C
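Note: PSI is a weighted mean of sequencing reads over stability bins, variants kept only with over 10 reads, mCherry proximal and sfGFP distal, peptide attached via GGGS linker.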

| Sequence | protein stability index [1] | protein stability index [2, 3] | protein stability index [2, 4] | protein stability index [2, 5] | protein stability index [2, 6] | protein stability index [2, 7] | protein stability index [2, 8] | protein stability index [2, 9] |
| --- | --- | --- | --- | --- | --- | --- | --- | --- |
| FGPVLLVSFLFS | 0.35 ± 0.014 | 0.273 ± 0.024 | 0.386 ± 0.033 | 0.242 ± 0.031 | 0.422 ± 0.027 | 0.19 ± 0.016 | 0.235 ± 0.054 | 0.4008 ± 0.0017 |
| NFSLFVHFLGLC | 0.445 ± 0.052 | 0.668 ± 0.047 | 0.703 ± 0.024 | 0.606 ± 0.021 | 0.687 ± 0.027 | 0.361 ± 0.0091 | 0.399 ± 0.023 | 0.608 ± 0.025 |
| FSCSRNVLVTVV | 0.32 ± 0.049 | 0.192 ± 0.029 | 0.197 ± 0.019 | 0.229 ± 0.029 | 0.344 ± 0.0087 | 0.178 ± 0.015 | 0.209 ± 0.013 | 0.256 ± 0.0056 |
| FRLCQRPVFLLS | 0.35 ± 0.0061 | 0.586 ± 0.054 | 0.669 ± 0.014 | 0.542 ± 0.018 | 0.676 ± 0.0091 | 0.182 ± 0.0059 | 0.22 ± 0.017 | 0.408 ± 0.02 |
| CCVFFLLCLSLF | 0.354 ± 0.044 | 0.419 ± 0.016 | 0.44 ± 0.024 | 0.341 ± 0.01 | 0.469 ± 0.023 | 0.353 ± 0.012 | 0.313 ± 0.0084 | 0.4223 ± 0.0038 |
| CASVCCFFAWIV | 0.416 ± 0.06 | 0.571 ± 0.028 | 0.623 ± 0.011 | 0.46 ± 0.046 | 0.5941 ± 0.0019 | 0.299 ± 0.017 | 0.323 ± 0.0068 | 0.4749 ± 0.00052 |
| VYTVGFVCWLVY | 0.316 ± 0.026 | 0.203 ± 0.0067 | 0.27 ± 0.013 | 0.208 ± 0.021 | 0.3458 ± 0.0024 | 0.185 ± 0.014 | 0.176 ± 0.025 | 0.323 ± 0.016 |
| GFVSLFRLFIRL | 0.36 ± 0.066 | 0.241 ± 0.073 | 0.218 ± 0.02 | 0.352 ± 0.032 | 0.4652 ± 0.0042 | 0.405 ± 0.024 | 0.25 ± 0.013 | 0.3595 ± 0.0028 |
| GEGISCLLRRLT | 0.413 ± 0.057 | 0.662 ± 0.013 | 0.709 ± 0.018 | 0.661 ± 0.024 | 0.713 ± 0.036 | 0.2625 ± 0.00058 | 0.286 ± 0.022 | 0.544 ± 0.033 |
| FFGFYLKFVWCG | 0.21 ± 0.019 | 0.431 ± 0.062 | 0.4683 ± 0.0021 | 0.391 ± 0.024 | 0.516 ± 0.0079 | 0.146 ± 0.015 | 0.152 ± 0.019 | 0.258 ± 0.025 |
| MWFFFICYFLSV | 0.263 ± 0.0072 | 0.277 ± 0.0059 | 0.361 ± 0.034 | 0.246 ± 0.049 | 0.411 ± 0.015 | 0.262 ± 0.021 | 0.249 ± 0.02 | 0.369 ± 0.0076 |
| IFLGFGPLFGRL | 0.777 ± 0.034 | 0.862 ± 0.044 | 0.878 ± 0.011 | 0.727 ± 0.03 | 0.817 ± 0.034 | 0.726 ± 0.037 | 0.73 ± 0.0083 | 0.824 ± 0.03 |
| IVCAVTSIFLFF | 0.315 ± 0.021 | 0.306 ± 0.015 | 0.45 ± 0.0079 | 0.288 ± 0.014 | 0.452 ± 0.016 | 0.243 ± 0.01 | 0.249 ± 0.035 | 0.422 ± 0.0045 |
| YNKIRNNEKKMT | 0.36 ± 0.017 | 0.664 ± 0.084 | 0.696 ± 0.026 | 0.674 ± 0.073 | 0.7121 ± 0.0016 | 0.1897 ± 0.0018 | 0.27 ± 0.055 | 0.457 ± 0.043 |
| FVWWFFFLSVVS | 0.26 ± 0.018 | 0.277 ± 0.0019 | 0.306 ± 0.023 | 0.265 ± 0.032 | 0.3987 ± 0.0029 | 0.255 ± 0.016 | 0.216 ± 0.018 | 0.334 ± 0.025 |
| CGSFWVNVLCAV | 0.402 ± 0.013 | 0.402 ± 0.01 | 0.422 ± 0.018 | 0.334 ± 0.035 | 0.497 ± 0.01 | 0.2657 ± 0.0011 | 0.299 ± 0.034 | 0.444 ± 0.0067 |
| FLFCACIRVFSY | 0.193 ± 0.0046 | 0.0501 ± 0.0013 | 0.17 ± 0.019 | 0.144 ± 0.025 | 0.228 ± 0.0087 | 0.125 ± 0.0033 | 0.133 ± 0.014 | 0.195 ± 0.02 |
| MLSVVSFVSCTC | 0.255 ± 0.012 | 0.181 ± 0.0023 | 0.17 ± 0.021 | 0.197 ± 0.017 | 0.29 ± 0.0063 | 0.1631 ± 0.0015 | 0.191 ± 0.027 | 0.237 ± 0.0063 |
| LGGVEDRWRTAT | 0.365 ± 0.0037 | 0.653 ± 0.05 | 0.704 ± 0.0094 | 0.693 ± 0.032 | 0.7227 ± 0.0051 | 0.261 ± 0.016 | 0.296 ± 0.025 | 0.534 ± 0.008 |
| GLLAFVCISHTS | 0.458 ± 0.039 | 0.497 ± 0.044 | 0.542 ± 0.0086 | 0.378 ± 0.033 | 0.575 ± 0.019 | 0.312 ± 0.0026 | 0.344 ± 0.026 | 0.5396 ± 0.0015 |

| Sequence | protein stability index [1] | protein stability index [2, 3] | protein stability index [2, 4] | protein stability index [2, 5] | protein stability index [2, 6] | protein stability index [2, 7] | protein stability index [2, 8] | protein stability index [2, 9] |
| --- | --- | --- | --- | --- | --- | --- | --- | --- |
| FGALVVCFLTRC | 0.374 ± 0.026 | 0.426 ± 0.039 | 0.511 ± 0.056 | 0.342 ± 0.027 | 0.519 ± 0.007 | 0.289 ± 0.02 | 0.302 ± 0.04 | 0.481 ± 0.027 |
| MIVAIQLVDHPP | 0.484 ± 0.044 | 0.459 ± 0.033 | 0.547 ± 0.0094 | 0.414 ± 0.013 | 0.522 ± 0.0075 | 0.409 ± 0.016 | 0.426 ± 0.028 | 0.509 ± 0.034 |
| GGLLSQLLRSIG | 0.425 ± 0.047 | 0.664 ± 0.026 | 0.723 ± 0.019 | 0.617 ± 0.024 | 0.743 ± 0.0075 | 0.2341 ± 0.0008 | 0.279 ± 0.055 | 0.5807 ± 0.0052 |
| RDASLLFHFFVC | 0.199 ± 0.0058 | 0.507 ± 0.059 | 0.727 ± 0.014 | 0.614 ± 0.012 | 0.726 ± 0.011 | 0.0833 ± 0.018 | 0.0965 ± 0.0056 | 0.143 ± 0.015 |
| HLAQYSSSLHLM | 0.554 ± 0.085 | 0.657 ± 0.098 | 0.719 ± 0.011 | 0.653 ± 0.0071 | 0.731 ± 0.027 | 0.375 ± 0.022 | 0.424 ± 0.014 | 0.6165 ± 0.0024 |
| GQSRLVADLRQV | 0.7147 ± 0.00089 | 0.635 ± 0.055 | 0.6934 ± 0.0012 | 0.646 ± 0.012 | 0.678 ± 0.018 | 0.676 ± 0.035 | 0.676 ± 0.0081 | 0.675 ± 0.025 |
| VGDFFVLVGFVA | 0.492 ± 0.053 | 0.493 ± 0.0097 | 0.538 ± 0.011 | 0.386 ± 0.028 | 0.547 ± 0.0057 | 0.336 ± 0.0095 | 0.382 ± 0.022 | 0.5219 ± 0.0043 |
| HPPPPPPPPSLS | 0.513 ± 0.062 | 0.673 ± 0.038 | 0.715 ± 0.0098 | 0.666 ± 0.028 | 0.7362 ± 0.0017 | 0.677 ± 0.029 | 0.67 ± 0.013 | 0.7037 ± 0.002 |
| KIKKLKNRRKLV | 0.166 ± 0.088 | 0.673 ± 0.0046 | 0.7717 ± 0.0033 | 0.625 ± 0.0071 | 0.7297 ± 0.003 | 0.0918 ± 0.019 | 0.0978 ± 0.0038 | 0.196 ± 0.032 |
| FMRKLVVLVVLG | 0.347 ± 0.089 | 0.257 ± 0.029 | 0.307 ± 0.013 | 0.222 ± 0.031 | 0.4342 ± 0.0023 | 0.1923 ± 0.0019 | 0.206 ± 0.028 | 0.417 ± 0.046 |
| FVLLTFLFFWQF | 0.328 ± 0.03 | 0.349 ± 0.014 | 0.441 ± 0.028 | 0.321 ± 0.031 | 0.476 ± 0.019 | 0.287 ± 0.007 | 0.299 ± 0.018 | 0.441 ± 0.016 |
| SGFLNVGYLWVC | 0.239 ± 0.069 | 0.5625 ± 0.00014 | 0.635 ± 0.0083 | 0.482 ± 0.025 | 0.644 ± 0.017 | 0.149 ± 0.012 | 0.175 ± 0.02 | 0.308 ± 0.02 |
| PPRCLLPPPSRS | 0.79 ± 0.015 | 0.652 ± 0.034 | 0.699 ± 0.014 | 0.694 ± 0.015 | 0.693 ± 0.0092 | 0.72 ± 0.05 | 0.692 ± 0.012 | 0.678 ± 0.009 |
| VAFLYCHFFYCI | 0.415 ± 0.013 | 0.502 ± 0.063 | 0.531 ± 0.013 | 0.391 ± 0.029 | 0.53095 ± 0.00027 | 0.342 ± 0.0038 | 0.37 ± 0.014 | 0.47 ± 0.009 |
| LSPLSPLLFRLI | 0.296 ± 0.016 | 0.482 ± 0.04 | 0.509 ± 0.012 | 0.516 ± 0.055 | 0.62 ± 0.018 | 0.249 ± 0.0059 | 0.226 ± 0.013 | 0.37479 ± 6.6e-05 |
| VFLLCLGFLVFS | 0.336 ± 0.038 | 0.263 ± 0.011 | 0.341 ± 0.046 | 0.258 ± 0.025 | 0.4083 ± 0.0018 | 0.241 ± 0.024 | 0.275 ± 0.02 | 0.3886 ± 0.0038 |
| RLIAVAGVVVVA | 0.477 ± 0.054 | 0.541 ± 0.032 | 0.5509 ± 0.0042 | 0.425 ± 0.025 | 0.5685 ± 0.0055 | 0.3997 ± 0.00095 | 0.431 ± 0.021 | 0.547 ± 0.0055 |
| GHHLRVRVILTA | 0.275 ± 0.054 | 0.4104 ± 0.00042 | 0.435 ± 0.0077 | 0.311 ± 0.026 | 0.47 ± 0.013 | 0.16006 ± 0.00015 | 0.189 ± 0.019 | 0.297 ± 0.013 |
| PWWDALLRARVC | 0.163 ± 0.025 | 0.429 ± 0.033 | 0.6 ± 0.054 | 0.435 ± 0.021 | 0.625 ± 0.019 | 0.103 ± 0.013 | 0.115 ± 0.022 | 0.159 ± 0.0039 |
